The results in this text go back to USRE48558 (Genentech, dated 2021).

T1: human CD79b on the cell surface (human, UniProt P40259 29-229)
T1 construct: In the Scatchard analysis the BJAB line also stably expressed cynomolgus CD79b; also called PRO36249; endogenous human CD79b on DoHH-2, BJAB and BJAB-luciferase cells
T1 sequence: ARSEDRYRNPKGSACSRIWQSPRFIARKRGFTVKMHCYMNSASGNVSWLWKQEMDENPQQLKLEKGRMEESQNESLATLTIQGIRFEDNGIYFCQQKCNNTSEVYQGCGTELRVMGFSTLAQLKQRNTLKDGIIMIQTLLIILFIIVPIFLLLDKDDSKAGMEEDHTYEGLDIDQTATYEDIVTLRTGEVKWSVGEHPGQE

T2: extracellular domain of human CD79b (human, UniProt P40259 29-159)
T2 construct: also called huCD79becd; huCD79b-ecd
T2 sequence: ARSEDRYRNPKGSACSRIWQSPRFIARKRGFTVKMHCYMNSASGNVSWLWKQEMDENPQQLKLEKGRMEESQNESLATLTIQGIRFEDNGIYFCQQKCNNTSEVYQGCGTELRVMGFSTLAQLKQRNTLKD

B1: thio huMA79b.v18-HC(A118C)-MC-MMAF (antibody, human IgG1, kappa)
heavy: not shown
light: DIQLTQSPSSLSASVGDRVTITCKASQSVDYDGDSFLNWYQQKPGKAPKLLIYAASNLESGVPSRFSGSGSGTDFTLTISSLQPEDFATYYCQQSNEDPLTFGQGTKVEIKRTVAAPSVFIFPPSDEQLKSGTASVVCLLNNFYPREAKVQWKVDNALQSGNSQESVTEQDSKDSTYSLSSTLTLSKADYEKHKVYACEVTHQGLSSPVTKSFNRGEC
modifications: MC-MMAF on the engineered Cys at EU position 118 (sequential 118; Kabat 114)
notes: Cysteine engineered antibody drug conjugate
B2: thio huMA79b.v18-HC(A118C)-MC-vcPAB-MMAE (antibody, human IgG1, kappa)
heavy: not shown
light: B1 light
modifications: MC-val-cit-PAB-MMAE on the engineered Cys at EU position 118 (sequential 118; Kabat 114)
notes: as for B1
B3: thio huMA79b.v18-HC(A118C)-BMPEO-DM1 (antibody, human IgG1, kappa)
heavy: not shown
light: B1 light
modifications: BMPEO-DM1 on the engineered Cys at EU position 118 (sequential 118; Kabat 114)
notes: Cysteine engineered antibody drug conjugate; also called huMA79b.v18-HC(A118C) thioMAb-BMPEO-DM1
B4: huMA79b graft variant SEQ ID NO: 64 (Fab, name in Kabat numbering, V domains shown)
VH: EVQLVESGGGLVQPGGSLRLSCAASGYPFTSYWIQWVRQAPGKGLEWVGEILPGGGDTNYNEIFKGRFTISADTSKNTAYLQMNSLRAEDTAVYYCTRRVPVYFDYWGQGTLVTVSS
VL: DIQMTQSPSSLSASVGDRVTITCKASQSVDYDGDSFLNWYQQKPGKAPKLLIYAASNLESGVPSRFSGSGSGTDFTLTISSLQPEDFATYYCQQSNEDPLTFGQGTKVEIKR
notes: Fab on phage; rest as huMA79b graft
B5: huMA79b graft variant SEQ ID NO: 68 (Fab, name in Kabat numbering, V domains shown)
VH: B4 VH with P28G, Q35S
VL: B4 VL
notes: as for B4
B6: huMA79b graft variant SEQ ID NO: 79 (Fab, name in Kabat numbering, V domains shown)
VH: B4 VH with T30R, Q35S
VL: B4 VL
notes: as for B4
B7: huMA79b graft variant SEQ ID NO: 84 (Fab, name in Kabat numbering, V domains shown)
VH: B4 VH with P28N, F29V, T30S, I34L, Q35S
VL: B4 VL
notes: as for B4
B8: huMA79b graft variant SEQ ID NO: 76 (Fab, name in Kabat numbering, V domains shown)
VH: B4 VH with P28S, T30P, I34L
VL: B4 VL
notes: as for B4
B9: huMA79b graft variant SEQ ID NO: 82 (Fab, name in Kabat numbering, V domains shown)
VH: B4 VH with T30N, S31R, Q35E
VL: B4 VL
notes: as for B4
B10: huMA79b graft variant SEQ ID NO: 86 (Fab, name in Kabat numbering, V domains shown)
VH: B4 VH with Y27F, T30N, S31R, Q35N
VL: B4 VL
notes: as for B4
B11: huMA79b graft variant SEQ ID NO: 70 (Fab, name in Kabat numbering, V domains shown)
VH: B4 VH with P28T, Q35E
VL: B4 VL
notes: as for B4
B12: huMA79b graft variant SEQ ID NO: 85 (Fab, name in Kabat numbering, V domains shown)
VH: B4 VH with Y27F, Q35S
VL: B4 VL
notes: as for B4
B13: huMA79b graft variant SEQ ID NO: 98 (Fab, name in Kabat numbering, V domains shown)
VH: B4 VH with P28T, T30S, Q35E, D105S
VL: B4 VL
notes: as for B4
B14: huMA79b graft variant SEQ ID NO: 102 (Fab, name in Kabat numbering, V domains shown)
VH: B4 VH with P28T, T30S, Q35E, Y103F, F104L
VL: B4 VL
notes: as for B4
B15: huMA79b graft variant SEQ ID NO: 71 (Fab, name in Kabat numbering, V domains shown)
VH: B4 VH with P28T, T30S, S31G, Q35N
VL: B4 VL
notes: as for B4
B16: huMA79b graft variant SEQ ID NO: 69 (Fab, name in Kabat numbering, V domains shown)
VH: B4 VH with P28T, I34L, Q35S
VL: B4 VL
notes: as for B4
B17: huMA79b graft variant SEQ ID NO: 83 (Fab, name in Kabat numbering, V domains shown)
VH: B4 VH with T30N, S31G, Q35N
VL: B4 VL
notes: as for B4
B18: huMA79b graft variant SEQ ID NO: 73 (Fab, name in Kabat numbering, V domains shown)
VH: B4 VH with P28S, T30R, Q35N
VL: B4 VL
notes: as for B4
B19: huMA79b graft variant SEQ ID NO: 92 (Fab, name in Kabat numbering, V domains shown)
VH: B4 VH with P28T, T30S, Q35E, V102F, Y103C, F104L
VL: B4 VL
notes: as for B4
B20: huMA79b graft variant SEQ ID NO: 80 (Fab, name in Kabat numbering, V domains shown)
VH: B4 VH with T30R, Q35N
VL: B4 VL
notes: as for B4
B21: huMA79b graft variant SEQ ID NO: 75 (Fab, name in Kabat numbering, V domains shown)
VH: B4 VH with P28S, T30R, S31R, Q35E
VL: B4 VL
notes: as for B4
B22: huMA79b graft variant SEQ ID NO: 101 (Fab, name in Kabat numbering, V domains shown)
VH: B4 VH with P28T, T30S, Q35E, Y103R
VL: B4 VL
notes: as for B4
B23: huMA79b graft variant SEQ ID NO: 95 (Fab, name in Kabat numbering, V domains shown)
VH: B4 VH with P28T, T30S, Q35E, V102I, Y103K, F104L
VL: B4 VL
notes: as for B4
B24: huMA79b graft variant SEQ ID NO: 105 (Fab, name in Kabat numbering, V domains shown)
VH: B4 VH with P28T, T30S, Q35E, V100R, Y103C, F104L
VL: B4 VL
notes: as for B4
B25: huMA79b graft variant SEQ ID NO: 100 (Fab, name in Kabat numbering, V domains shown)
VH: B4 VH with P28T, T30S, Q35E, Y103R, F104L
VL: B4 VL
notes: as for B4
B26: huMA79b graft variant SEQ ID NO: 72 (Fab, name in Kabat numbering, V domains shown)
VH: B4 VH with P28T, T30R, S31R, Q35N
VL: B4 VL
notes: as for B4
B27: huMA79b graft variant SEQ ID NO: 65 (Fab, name in Kabat numbering, V domains shown)
VH: B4 VH with T30R, S31R, Q35E
VL: B4 VL
notes: as for B4
B28: huMA79b graft variant SEQ ID NO: 78 (Fab, name in Kabat numbering, V domains shown)
VH: B4 VH with T30S, S31G, Q35E
VL: B4 VL
notes: as for B4
B29: huMA79b graft variant SEQ ID NO: 66 (Fab, name in Kabat numbering, V domains shown)
VH: B4 VH with F29V, T30G, S31R, Q35S
VL: B4 VL
notes: as for B4
B30: huMA79b graft variant SEQ ID NO: 89 (Fab, name in Kabat numbering, V domains shown)
VH: B4 VH with P28T, T30S, Q35E, Y103K, F104L
VL: B4 VL
notes: as for B4
B31: huMA79b graft variant SEQ ID NO: 99 (Fab, name in Kabat numbering, V domains shown)
VH: B4 VH with P28T, T30S, Q35E, Y103V, F104L
VL: B4 VL
notes: as for B4
B32: huMA79b graft variant SEQ ID NO: 77 (Fab, name in Kabat numbering, V domains shown)
VH: B4 VH with S31R, Q35E
VL: B4 VL
notes: as for B4
B33: huMA79b graft variant SEQ ID NO: 81 (Fab, name in Kabat numbering, V domains shown)
VH: B4 VH with T30R, S31G, Q35E
VL: B4 VL
notes: as for B4
B34: huMA79b graft variant SEQ ID NO: 74 (Fab, name in Kabat numbering, V domains shown)
VH: B4 VH with P28S, T30R, S31R, Q35N
VL: B4 VL
notes: as for B4
B35: huMA79b graft variant SEQ ID NO: 96 (Fab, name in Kabat numbering, V domains shown)
VH: B4 VH with P28T, T30S, Q35E, V102I, Y103R
VL: B4 VL
notes: as for B4
B36: huMA79b graft variant SEQ ID NO: 106 (Fab, name in Kabat numbering, V domains shown)
VH: B4 VH with P28T, T30S, Q35E, V100I
VL: B4 VL
notes: as for B4
B37: thio huMA79b.v28-HC(A118C)-MC-MMAF (antibody, human IgG1, kappa)
heavy: not shown
light: B1 light with D32E
modifications: MC-MMAF on the engineered Cys at EU position 118 (sequential 118; Kabat 114)
notes: as for B1
B38: thio huMA79b.v28-HC(A118C)-BMPEO-DM1 (antibody, human IgG1, kappa)
heavy: not shown
light: B1 light with D32E
modifications: BMPEO-DM1 on the engineered Cys at EU position 118 (sequential 118; Kabat 114)
notes: as for B1
B39: thio huMA79b.v28-HC(A118C)-MCvcPAB-MMAE (antibody, human IgG1, kappa)
heavy: not shown
light: B1 light with D32E
modifications: MC-val-cit-PAB-MMAE on the engineered Cys at EU position 118 (sequential 118; Kabat 114)
notes: Cysteine engineered antibody drug conjugate; also called thio huMA79b.v28-HC(A118C)-MC-val-cit-PAB-MMAE

Changes are numbered by the printed parent chain. Names and notes keep the numbering of the source.

For the first test, the target named is T1, human CD79b on the cell surface. In words: FACS on BJAB-luciferase cells, PE anti-human IgG detection.
In the case of B1, the binding result was “binds”.

With B2, the binding result is recorded as “binds”.

B3: the binding result is listed as “binds”.

A further test has as its target T2, extracellular domain of human CD79b. In words: phage selection, Fab on phage, plate-bound huCD79becd.
Regarding B4, the binding result is “binds”. Take B5: the binding result is reported as “binds”.

As to B6, the binding result is reported as “binds”. Consider B7, for which the binding result is on record as “binds”. On to B8, for which the binding result was “binds”. Same read-out and setting: the same measure for B9: “binds”; for B10: “binds”; for B11: “binds”. On the same count and under the same terms, the same measure for B12: “binds”. The same measure, in the same setting: the result for B13 reads “binds”. Take B14: the binding result is listed as “binds”. On to B15, for which the binding result is given as “binds”. The same measure, in the same setting: the same measure for B16: “binds”; for B17: “binds”. Same read-out and setting: the same measure for B18: “binds”; for B19: “binds”.

Turning to B20, the binding result is listed as “binds”.

Regarding B21, the binding result is listed as “binds”. The same measure, in the same setting: the result for B22 reads “binds”.

Regarding B23, the binding result is reported as “binds”. Still for that read-out and setting: the result for B24 reads “binds”.

For the molecule B25, the binding result was “binds”. For B26, the binding result is “binds”. Take B27: the binding result is recorded as “binds”. On the same count and under the same terms, the same measure for B28: “binds”; for B29: “binds”. B30: the binding result is listed as “binds”. Still for that read-out and setting: the same measure for B31: “binds”; for B32: “binds”. The same measure, in the same setting: the same measure for B33: “binds”; for B34: “binds”; for B35: “binds”.

In the case of B36, the binding result is reported as “binds”.

The target in the next test is T1, human CD79b on the cell surface. Kind of test: FACS on BJAB-luciferase cells, PE anti-human detection.
Regarding B37, the binding result was “binds”. Same read-out and setting: the same measure for B38: “binds”; for B39: “binds”.
